From publication PMC5934667 (Nucleic Acids Research, 2018)

What was measured:
[1] = target: the molecule itself; experiment: negative-stain EM, helical reconstruction
RAD51 KR [2] = target: T1, RAD51 KR (human, UniProt Q06609 1-339, K133R); experiment: stopped-flow Cy3 fluorescence
RAD51 KA [3] = target: T2, RAD51 KA (human, UniProt Q06609 1-339, K133A); experiment: stopped-flow Cy3 fluorescence
RecA = RecA (bacterial, UniProt P0A7G6 1-353); experiment: stopped-flow Cy3 fluorescence
RAD51 WT [4] = target: T3, RAD51 WT (human, UniProt Q06609 1-339); experiment: EMSA
RAD51 KR [5] = target: T1, RAD51 KR; experiment: EMSA
RAD51 KA [6] = target: T2, RAD51 KA; experiment: EMSA
RAD51 KR [7] = target: T1, RAD51 KR; experiment: nuclease protection
RAD51 KA [8] = target: T2, RAD51 KA; experiment: nuclease protection
RAD51 WT [9] = target: T3, RAD51 WT; experiment: nuclease protection

Sequence of RecA (P0A7G6 whole entry): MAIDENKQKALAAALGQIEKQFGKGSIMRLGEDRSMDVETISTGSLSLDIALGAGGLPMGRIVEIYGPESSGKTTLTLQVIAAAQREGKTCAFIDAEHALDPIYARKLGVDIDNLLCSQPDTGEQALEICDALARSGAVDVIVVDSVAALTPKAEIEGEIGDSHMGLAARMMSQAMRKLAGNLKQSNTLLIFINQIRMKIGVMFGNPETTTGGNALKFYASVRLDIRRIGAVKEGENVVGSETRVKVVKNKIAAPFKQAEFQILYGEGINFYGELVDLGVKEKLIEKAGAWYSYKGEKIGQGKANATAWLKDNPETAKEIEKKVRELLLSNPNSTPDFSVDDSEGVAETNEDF

B1: Human RAD51 K133R (natural protein)
chain: MAMQMQLEANADTSVEEESFGPQPISRLEQCGINANDVKKLEEAGFHTVEAVAYAPKKELINIKGISEAKADKILAEAAKLVPMGFTTATEFHQRRSEIIQITTGSKELDKLLQGGIETGSITEMFGEFRTGRTQICHTLAVTCQLPIDRGGGEGKAMYIDTEGTFRPERLLAVAERYGLSGSDVLDNVAYARAFNTDHQTQLLYQASAMMVESRYALLIVDSATALYRTDYSGRGELSARQMHLARFLRMLLRLADEFGVAVVITNQVVAQVDGAAMFAADPKKPIGGNIIAHASTTRLYLRKGRGETRICKIYDSPCLPEAEAMFAINADGVGDAKD
B1: binds [1].

B2: Human RAD51 K133A (natural protein)
chain: MAMQMQLEANADTSVEEESFGPQPISRLEQCGINANDVKKLEEAGFHTVEAVAYAPKKELINIKGISEAKADKILAEAAKLVPMGFTTATEFHQRRSEIIQITTGSKELDKLLQGGIETGSITEMFGEFRTGATQICHTLAVTCQLPIDRGGGEGKAMYIDTEGTFRPERLLAVAERYGLSGSDVLDNVAYARAFNTDHQTQLLYQASAMMVESRYALLIVDSATALYRTDYSGRGELSARQMHLARFLRMLLRLADEFGVAVVITNQVVAQVDGAAMFAADPKKPIGGNIIAHASTTRLYLRKGRGETRICKIYDSPCLPEAEAMFAINADGVGDAKD
B2: binds [1].

B3: 5'-Cy3-dT79 (ssDNA)
DNA: TTTTTTTTTTTTTTTTTTTTTTTTTTTTTTTTTTTTTTTTTTTTTTTTTTTTTTTTTTTTTTTTTTTTTTTTTTTTTTT
For B3, the binding result (RAD51 KR [2]) was “binds”, the binding result (RAD51 KA [3]) was “binds” and the Kd (RecA) was under 1100 nM.

B4: 83-mer (ssDNA)
DNA: AAATGAACATAAAGTAAATAAGTATAAGGATAATACAAAATAAGTAAATGAATAAACATAGAAAATAAAGTAAAGGATATAAA
B4: binds (RAD51 WT [4]); binds (RAD51 KR [5]); binds (RAD51 KA [6]).

B5: 61-mer (ssDNA)
DNA: GACGCTGCCGAATTCTACCAGTGCCTTGCTAGGACATCTTTGCCCACCTGCAGGTTCACCC
B5: binds (RAD51 KR [7]); binds (RAD51 KA [8]); binds (RAD51 WT [9]).
